Assays:
[1] = target: T1, ProH (Bacillus subtilis, UniProt P0CI77); assay: NAD(P)H oxidation at […] nm; assay type: biochemical
T1 construct: full-length; pMCSG68, N-terminal His6-TEV tag removed; E. coli BL21 Gold; homodimer by SAXS

[2] = target: T2, ProG (Bacillus subtilis, UniProt Q00777); assay: NAD(P)H oxidation at […] nm; assay type: biochemical
T2 construct: full-length; pMCSG68, N-terminal His6-TEV tag removed; E. coli BL21 Gold; homodimer by SAXS

[3] = target: T3, ProI (Bacillus subtilis, UniProt P54552); assay: NAD(P)H oxidation at […] nm; assay type: biochemical
T3 construct: full-length; pMCSG68, N-terminal His6-TEV tag removed; E. coli BL21 Gold; homodimer by SAXS

[4] = target: T4, ComER (Bacillus subtilis, UniProt P39696); assay: NAD(P)H oxidation at […] nm; assay type: biochemical
T4 construct: full-length; pMCSG68, N-terminal His6-TEV tag removed; E. coli BL21 Gold; monomer by SAXS

[5] = substrate: NC(=O)C1=CN([C@@H]2O[C@H](COP(=O)(O)OP(=O)(O)OC[C@H]3O[C@@H](n4cnc5c(N)ncnc54)[C@H](O)[C@@H]3O)[C@@H](O)[C@H]2O)C=CC1; assay: purified protein; assay type: biochemical, Bacillus subtilis; conditions: 1 mM L-P5C, 20 mM Tris-HCl pH 7.0, 30°C
[6] = substrate: NC(=O)C1=CN([C@@H]2O[C@H](COP(=O)(O)OP(=O)(O)OC[C@H]3O[C@@H](n4cnc5c(N)ncnc54)[C@H](OP(=O)(O)O)[C@@H]3O)[C@@H](O)[C@H]2O)C=CC1; assay: purified protein; assay type: biochemical, Bacillus subtilis; conditions: 1 mM L-P5C, 20 mM Tris-HCl pH 7.0, 30°C, kcat per monomer
[7] = target: the molecule itself; assay: small-angle X-ray scattering (SAXS) in line with SEC; each native protein at 5 mg mL^-1 loaded onto a Superdex 200 column in 20 mM HEPES pH 8.0, 150 mM NaCl, 2 mM TCEP, routed into the flow cell; oligomeric state from mass, Rg, Dmax and ab initio envelope
[8] = substrate: O=C(O)[C@@H]1CCC=N1; assay: purified protein; assay type: biochemical, Bacillus subtilis; conditions: 0.5 mM NADPH, 20 mM Tris-HCl pH 7.0, 30°C

IC50 [1]	Molecule	Km [6]	kcat [6]	kcat/Km [6]	stoichiometry N [7]	also measured
41.4 ± 4.2 mM	O=C(O)[C@@H]1CCCN1 [proline]					IC50 [2]: 22.3 ± 2.1 mM
0.66 ± 0.1 mM	NC(=O)c1ccc[n+]([C@@H]2O[C@H](COP(=O)(O)OP(=O)(O)OC[C@H]3O[C@@H](n4cnc5c(N)ncnc54)[C@H](OP(=O)(O)O)[C@@H]3O)[C@@H](O)[C@H]2O)c1 [NADP^+]					IC50 [3]: 0.34 ± 0.04 mM; IC50 [2]: 0.23 ± 0.03 mM; IC50 [4]: 0.48 ± 0.07 mM
44.5 ± 11.6 mM	NC(=O)c1ccc[n+]([C@@H]2O[C@H](COP(=O)(O)OP(=O)(O)OC[C@H]3O[C@@H](n4cnc5c(N)ncnc54)[C@H](O)[C@@H]3O)[C@@H](O)[C@H]2O)c1 [NAD^+]					IC50 [3]: 6.22 ± 0.6 mM; IC50 [4]: 29.7 ± 3.7 mM
	ProH (Bacillus subtilis subsp. subtilis str. 168) (protein, full-length; pMCSG68, N-terminal His6-TEV tag removed; E. coli BL21 Gold; homodimer by SAXS) MRTKKRTKEMLPIFDQKKVAFIGAGSMAEGMISGIVRANKIPKQNICVTNRSNTERLTELELQYGIKGALPNQLCIEDMDVLILAMKPKDAENALSSLKSRIQPHQLILSVLAGITTSFIEQSLLNEQPVVRVMPNTSSMIGASATAIALGKYVSEDLKKLAEALLGCMGEVYTIQENQMDIFTGIAGSGPAYFYYLMEFIEKTGEEAGLDKQLSRSIGAQTLLGAAKMLMETGEHPEILRDNITSPNGTTAAGLQA	13.6 ± 2.6 µM	814 s⁻¹	6.3e+07 M⁻¹ s⁻¹		Km [5]: 786 ± 36 µM
	ProH, putative δ1-pyrroline-5-carboxylate (P5C) reductase from Bacillus subtilis (enzyme, Bacillus subtilis strain 168, UniProt P0CI77 1-297, looked up, ProH, putative P5C reductase, Bacillus subtilis strain 168; calculated mass 32.03 kDa; Cloned in pMCSG68 (His6 tag and TEV site at the N-terminus); also called P5C reductase ProH; source: E. coli BL21 Gold, purified (Ni-NTA, TEV cleavage, second Ni-NTA, SEC on Superdex 200); not shown: His6, N-terminal, cleaved) MRTKKRTKEMLPIFDQKKVAFIGAGSMAEGMISGIVRANKIPKQNICVTNRSNTERLTELELQYGIKGALPNQLCIEDMDVLILAMKPKDAENALSSLKSRIQPHQLILSVLAGITTSFIEQSLLNEQPVVRVMPNTSSMIGASATAIALGKYVSEDLKKLAEALLGCMGEVYTIQENQMDIFTGIAGSGPAYFYYLMEFIEKTGEEAGLDKQLSRSIGAQTLLGAAKMLMETGEHPEILRDNITSPNGTTAAGLQALKKSGGGEAISQAIKHAAKRSKEISEDIEKTAAPLSGVIK				2	
	ProI, putative δ1-pyrroline-5-carboxylate (P5C) reductase from Bacillus subtilis (enzyme, Bacillus subtilis strain 168, UniProt P54552 1-278, looked up, ProI, putative P5C reductase, Bacillus subtilis strain 168; calculated mass 30.90 kDa; Cloned in pMCSG68 (His6 tag and TEV site at the N-terminus); also called P5C reductase ProI; source: E. coli BL21 Gold, purified (Ni-NTA, TEV cleavage, second Ni-NTA, SEC on Superdex 200); not shown: His6, N-terminal, cleaved) MKKIGFVGAGSMAEAMINGILQSGITKPEHIYITNRSNDERLIELKETYSVRPCRDKNEFFTHTDIIILAFKPKDAAESIDSIRPYIKDQLVISVLAGLTIETIQHYFGRKLAVIRVMPNTSAAIRKSATGFSVSTEASKNDIIAAKALLETIGDATLVEERHLDAVTAIAGSGPAYVYRYIEAMEKAAQKVGLDKETAKALILQTMAGATDMLLQSGKQPEKLRKEITSPGGTTEAGLRALQDSRFEEAIIHCIEETAKRSAEIKEQFAGAALERHS	51.8 ± 2.8 µM	0.14 s⁻¹	2600 M⁻¹ s⁻¹	2	Km ([5]; kcat per monomer): 1,810 ± 480 μM; kcat ([5]; kcat per monomer): 0.28 s⁻¹; kcat/Km ([5]; kcat per monomer): 150 M⁻¹ s⁻¹; Km [8]: 203 ± 30 µM
	ProG, putative δ1-pyrroline-5-carboxylate (P5C) reductase from Bacillus subtilis (enzyme, Bacillus subtilis strain 168, UniProt Q00777 1-272, looked up, ProG, putative P5C reductase, Bacillus subtilis strain 168; calculated mass 30.20 kDa; Cloned in pMCSG68 (His6 tag and TEV site at the N-terminus); also called P5C reductase ProG; source: E. coli BL21 Gold, purified (Ni-NTA, TEV cleavage, second Ni-NTA, SEC on Superdex 200); not shown: His6, N-terminal, cleaved) MEQIGLIGYGSMADMIARQLLKHEQIKENELFIETRTKGERLRALMSDYPNVSADPLENWANTCQLILICVPPLHVIETMRRLYPYVNRNTHIVSIAAGVPLRLLEAETEAGISRVIPAITSEAEAGISLVVHSEALAAEKKERLNELLSVFSRVREIKESNLDVASNLTSSAPGFIAAIFEELALSAVRNSSLSKEEAFDFLIHSLYGTGKMLIEKNMSFEETLERVATKGGITGEGAEVIHASVPDVFDEVFERTLRKYELLTEQVGKQT	232 ± 18 µM	19 s⁻¹	84000 M⁻¹ s⁻¹	2	Km [8]: 64.9 ± 8.1 µM
	ComER (Bacillus subtilis subsp. subtilis str. 168) (protein, full-length; pMCSG68, N-terminal His6-TEV tag removed; E. coli BL21 Gold; monomer by SAXS) MKIGFIGTGNMGTILIESFIESKAADPSNMTITNRTIEKALHIKNRYNSINVTESLEKLVSENEMIFICVKPLDIYPLLARALPYLRKDHILISITSPVQTEQLEQYVPCQVARVIPSITNRALAGVSLVTFGTSCGESAKAKINELMQHISHPLQIESDITRVASDIVSCGPAFMSYLIQRFIDAAVSETSVSKQDAILMCKEMLVGMGKLLETELYTLPALQEKVCVKGGVTGEGIKALESGVQDMFHRVFQNTHMKYEEDISAVKKQFHV	1.2 ± 0.4 µM	0.09 s⁻¹	75000 M⁻¹ s⁻¹		Km ([5]; kcat per monomer): 226 ± 14 µM; kcat ([5]; kcat per monomer): 0.06 s⁻¹; kcat/Km ([5]; kcat per monomer): 270 M⁻¹ s⁻¹; Km ([8]; kcat per monomer): 3150 ± 1420 µM; kcat ([8]; kcat per monomer): 0.09 s⁻¹

From publication PMC5539093, “Functional Characterization of Four Putative δ^1-Pyrroline-5-Carboxylate Reductases from Bacillus subtilis” (Frontiers in Microbiology, 2017)
